Assay results reported in patent US20110123544A1 (published 2011).

Molecular target: T1, recombinant human IL-12 (rhIL-12) (human, UniProt P29459 23-219; P29460 23-328)
T1 chain 1: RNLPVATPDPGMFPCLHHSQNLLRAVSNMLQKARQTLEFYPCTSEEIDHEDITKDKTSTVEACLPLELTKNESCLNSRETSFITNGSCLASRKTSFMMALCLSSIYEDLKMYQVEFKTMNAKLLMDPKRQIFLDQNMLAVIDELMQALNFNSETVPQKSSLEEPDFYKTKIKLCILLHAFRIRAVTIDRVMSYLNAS
T1 chain 2: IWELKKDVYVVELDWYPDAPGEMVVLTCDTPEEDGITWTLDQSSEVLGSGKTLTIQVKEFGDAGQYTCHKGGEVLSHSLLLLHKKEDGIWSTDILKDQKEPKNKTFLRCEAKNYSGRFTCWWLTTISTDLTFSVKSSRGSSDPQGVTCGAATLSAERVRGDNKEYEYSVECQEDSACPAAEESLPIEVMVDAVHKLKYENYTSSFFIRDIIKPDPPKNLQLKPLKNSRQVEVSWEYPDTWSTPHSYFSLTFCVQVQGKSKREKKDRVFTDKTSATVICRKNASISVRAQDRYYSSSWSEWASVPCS
Assay: BIAcore

Row | Binder | koff [s⁻¹]
1 | QSYDQGTHPALL [Y61 L93 Q] | 0.0003
2 | QSYDGGTHPALL [Y61 L93 G] | 0.000392
3 | QSYDCGTHPALL [Y61 L93 C] | 0.00032
4 | QSYWRGTHPALL [Y61 L92 W] | 0.00072
5 | QSYDRPTHPALL [Y61 L94 P] | 0.000332
6 | QSYDRVTHPALL [Y61 L94 V] | 0.000351
7 | QSYSRGTHPALL [Y61 L92 S] | 0.000307
8 | QSYDYGTHPALL [Y61 L93 Y] | 0.000335
9 | QSYDRDTHPALL [Y61 L94 D] | 0.000253
10 | QSYNRGTHPALL [Y61 L92 N] | 0.000347
11 | QSYDRITHPALL [Y61 L94 I] | 0.000276
12 | QSYDRSTHPALL [Y61 L94 S] | 0.000287
13 | QSYDSGTHPALL [Y61 L93 S] | 0.000341
14 | QSYARGTHPALL [Y61 L92 A] | 0.000357
15 | QSYDAGTHPALL [Y61 L93 A] | 0.00031
16 | QSYDDGTHPALL [Y61 L93 D] | 0.000343
17 | QSYDIGTHPALL [Y61 L93 I] | 0.000295
18 | QSYCRGTHPALL [Y61 L92 C] | 0.000453
19 | QSYDRWTHPALL [Y61 L94 W] | 0.000293
20 | QSYDVGTHPALL [Y61 L93 V] | 0.000269
21 | QSYYRGTHPALL [Y61 L92 Y] | 0.000511
22 | QSYDRLTHPALL [Y61 L94 L] | 0.000244
23 | QSYQRGTHPALL [Y61 L92 Q] | 0.000427
24 | QSYDNGTHPALL [Y61 L93 N] | 0.000316
25 | QSYIRGTHPALL [Y61 L92 I] | 0.000618
26 | QSYDMGTHPALL [Y61 L93 M] | 0.000275
27 | QSYDRTTHPALL [Y61 L94 T] | 0.000305
28 | QSYGRGTHPALL [Y61 L92 G] | 0.000349
29 | QSYDRRTHPALL [Y61 L94 R] | 0.000231
30 | QSYDRQTHPALL [Y61 L94 Q] | 0.00025

Molecular target: T1, recombinant human IL-12 (rhIL-12)
Assay: BIAcore
Remark: another data set of the same source

Row | Binder | koff [s⁻¹]
31 | SGGRSNIGSNYVK [Y61 L32 Y] | 0.000213
32 | SGGRSNIGCNTVK [Y61 L30 C] | 0.000186
33 | SGGRSNIGSDTVK [Y61 L31 D] | 0.00058
34 | SGGRSNIGSNNVK [Y61 L32 N] | 0.00197
35 | SGGRSNIGSNLVK [Y61 L32 L] | 0.00215
36 | SGGRSNIGYNTVK [Y61 L30 Y] | 0.000483
37 | SGGRSNIGDNTVK [Y61 L30 D] | 0.00022
38 | SGGRSNIGSITVK [Y61 L31 I] | 9.7e-05
39 | SGGRSNIGSNAVK [Y61 L32 A] | 0.00191
40 | SGGRSNIGSNPVK [Y61 L32 P] | 0.000424
41 | SGGRSNIGSMTVK [Y61 L31 M] | 0.000174
42 | SGGRSNIGSHTVK [Y61 L31 H] | 0.000315
43 | SGGRSNIGSNVVK [Y61 L32 V] | 0.00164
44 | SGGRSNIGNNTVK [Y61 L30 N] | 0.000166
45 | SGGRSNIGSNKVK [Y61 L32 K] | 0.000318
46 | SGGRSNIGSNQVK [Y61 L32 Q] | 0.00247
47 | SGGRSNIGSYTVK [Y61 L31 Y] | 0.000357
48 | SGGRSNIGSNRVK [Y61 L32 R] | 0.0069
49 | SGGRSNIGTNTVK [Y61 L30 T] | 0.000226
50 | SGGRSNIGSNSVK [Y61 L32 S] | 0.00191
51 | SGGRSNIGSGTVK [Y61 L31 G] | 0.000366
52 | SGGRSNIGPNTVK [Y61 L30 P] | 0.00025
53 | SGGRSNIGSNCVK [Y61 L32 C] | 0.00381
54 | SGGRSNIGRNTVK [Y61 L30 R] | 0.000182
55 | SGGRSNIGKNTVK [Y61 L30 K] | 0.000346
